Consider one substance from patent US5808025.

Assay [1] has as its target chimeric selectin L2P (human) (UniProt P16109).
Assay [2] addresses chimeric selectin L2P3L (human) (UniProt P16109).

In the case of LAM1-3 mAb (antibody), the lymphocytes bound/HEV (lymphocytes bound/HEV) in the assay with L-selectin (human) came to 0.05; in assay [1], 0.074; in assay [2] it was 0.08.
